By Km is commonly meant the concentration of substrate that gives half-maximal velocity.

Substrate in this data set: CCCCCCCCCCCCCCCC(=O)Oc1ccc([N+](=O)[O-])cc1
The data set is described as follows: hydrolysis assay, Michaelis-Menten nonlinear fit. The settings on record: free enzyme, optimum temperature and pH (50 °C, pH 8.5, 20 mM Tris-HCl), substrate 0.05-5.0 mM, p-NPP as the standard assay substrate. The data set is classed as biochemical, Thermomyces lanuginosus. The source says:
hydrolysis assay, Michaelis-Menten nonlinear fit on Lipase from Thermomyces lanuginosus (Lipozyme TL 100 L)

B1: Lipase from Thermomyces lanuginosus (Lipozyme TL 100 L) (Thermomyces lanuginosus) (protein)
chain: EVSQDLFNQFNLFAQYSAAAYCGKNNDAPAGTNITCTGNACPEVEKADATFLYSFEDSGVGDVTGFLALDNTNKLIVLSFRGSRSIENWIGNLNFDLKEINDICSGCRGHDGFTSSWRSVADTLRQKVEDAVREHPDYRVVFTGHSLGGALATVAGADLRGNGYDIDVFSYGAPRVGNRAFAEFLTVQTGGTLYRITHTNDIVPRLPPREFGYSHSSPEYWIKSGTLVPVTRNDIVKIEGIDATGGNNQPNIPDIPAHLWYFGLIGTCL
notes: commercial secreted enzyme preparation (Novozymes), free (not immobilised)
Regarding B1, the Km was 710 ± 50 µM.
